The nature of the data set: yeast display, Sf9 membrane polyspecificity reagent, FACS + sequencing; frameworks hold sequencing errors. An outline of the steps: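 Using colony PCR, genes from sorted yeast display clones were amplified, then sequenced on MiSeq at 2 × 250 and filtered by CDR length. The clones had been stained with 10% biotinylated, detergent-solubilized Sf9 membrane reagent for 1 hour at 4 °C and sorted by FACS into low and high (top ~1%) gates on anti-HA and streptavidin fluorescence. Polyreactivity labels come from the gate of origin.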
As for “QVQLVESGGGLVQAGGSLRLSCAASGFIFSIYAMGWYRQAPGKERELVATITYSGGSTYYADSVKGRFTISRDNAKNTVYLQMNSLKPEDTAVYYCNALSKGYYTIGGYSWGQGTQVTVSS”, the “polyreactivity (PSR sort gate)” value was “low polyreactivity”. On to “QVQLVESGGGLVQAGGSLRLSCAASGLTFYSYAMGWYRQAPGKERELVAAITWSGGGTYYADSVKGRFTISRDNAKNTVYLQMNSLKPVDTADYYCAADYWGYDIYYGLTERESWGQGTQVTVSS”, for which the “polyreactivity (PSR sort gate)” value is recorded as “high polyreactivity”. With “QVQLVESGGGLVQAGGSLRLSCAASGFIYGANAMGWYRQAPGKERALVAAISWNGGRTYYADSVKGRFTISRDNAKKTVYLQMNSLKPEDTAVYYCNARSWYSFQPQDYWGQGTQVTVSW”, the “polyreactivity (PSR sort gate)” value is reported as “high polyreactivity”.

“QVQLVESGGGLVQAGGSLRLSCAASGRIFRPYAMGWYRQAPGKEREFVAAITQSGGITSYADSVKGRFTISRDNAKNTVYLQMNRLKPEDTAVYFCATTSRYTRSHYDWYDYWGQGTQVTVSS”: the “polyreactivity (PSR sort gate)” value was “low polyreactivity”. Turning to “QVQLVESGGGLVQAGGSLRLSCAASGSIFPDNAMGRYRQAAGKVRELVAAIDKGTGSTNYADSVKGRFTISRDNAKNSVYLQINSVKPEDTAGYYCDKGWLSPRGGAWYDDYWGQGTEVTVSS”, the “polyreactivity (PSR sort gate)” value is recorded as “low polyreactivity”. Take “QVQLVETGGGLVQAGGSLRLSCAASGFIFHPNTMGWYSPAPGKERELVAGISYSGGITYTDSVKGRFTISRDNAKNTVYLQMNSLKPEDTAVYYCSAGDKYHYYWGQGTQVTVSS”: the “polyreactivity (PSR sort gate)” value is “low polyreactivity”.

“QVQLVESGGVLVQAGGSLRLSCAASGSLFTRYAMGGYRQAPGKVRELVAAISKSGTTTYYADSVKGRFTISRDNAKNTVYLQMNSLIPEDTAVYYCAAVPIAGKMDYWGQGTQVTVSS”: the “polyreactivity (PSR sort gate)” value is “high polyreactivity”.

Take “QVQLVESGGGLVQAGGSLRLSCPASGRIFYKYAMGWYRQAPGKERELVAAISSTGGSTNYADSVKGRFTISRDNAKNSVYFQMNSLKPEDTAVYYCNAVSRYYYPYYYWGQGTQVTVSS”: the “polyreactivity (PSR sort gate)” value is on record as “low polyreactivity”. To “QGHLVESLGGLVQAGGSLRLSCAASGRIIGVYAMGWSRQAPGKERELVAAISEGGGSTNYADSVKGRFTISRDNSKNTVYLQMNSLKPEDTAVYYCNADADEYRDYHDYDYWGQGTQVTVSS” belongs “low polyreactivity”; to “QVQLVESGGCLVQPGGSLRLSCAASGRTSVRNAMGWYRQAPGKERELVAAISNGGRTNYADSVKGRFTISRGNAKNTVYLQMNSLKPQDTAVYYCAARGFWLYYHGGVRSGYDYWGQGTQVTVSS”, “high polyreactivity”. On to “QVQLVESGGGLVQAGGSLRLSCAASGSIFYPYAMGCYRQAPGKERELVAAITSSGGSTYYADSVKGRFTISRDNAKNTVYLQMNSLKPEDTAVYYCNAKGPYTAIYYKPFLGSTRFEYWGQGTQVTVSS”, for which the “polyreactivity (PSR sort gate)” value was “high polyreactivity”. To “QVQLVESGGGLVQAGGSLRLSCAASGSTFRGYAMGWYRQAPGKERELVAAITRSGGSTYYADSVKGRFTISRDNAKNTVYLQMNSLKPEDTAVYYCNDRAFPYYRRFDYWGQGTQVTVSS” belongs “high polyreactivity”; to “QVQLVESGGGLVQAGGSLRLSCAASGSTFGRNAMGWYRQAPGKERELVAAINWSDGSTHYADSVKGRFTISRDNAKNTVYLQMNSLKPEDTAVYYCAADAWSWPVDYNYWGQGTQVTVSS”, “low polyreactivity”; to “QVQLVESGGGLVQAGGSLRLSCAASGFIFWYNAMGWYRQAPGKERELVAVISTSGTITYYADSVKGRFTISRDNAKNTVYLQMNSLKPEDTAVYYCAARYYQRANGFGYWGQGTQVTVSS”, “low polyreactivity”. As to “QVQLVESGGGLVQAGGSLRLSCAASGSISWVYAMGWYRQAPGKERELVAAISNSGGSTYYADSVKGRFTISRDNAKNTVYLQMNSLKPEDTAVYYCAADGYFYYSAFWASPYEYWGQGTQVTVSS”, the “polyreactivity (PSR sort gate)” value is “high polyreactivity”.

Take “QVQLVESGGGLVQAGGSLRLSCAASGRTFAFYAMGWYRQAPGKERELVASISSSGDRTYYADSVKGRFTISRDNAKNTVYLQMNSLKPEDTAVYYCAARWRYTYYYWGQGTQVTVSS”: the “polyreactivity (PSR sort gate)” value is on record as “high polyreactivity”. To “QVQLVESGGGLVQAGGSLRLSCAASGTFSQYAMGWYRQAPGKERQLVAAISQGGGSTYYADSVKGRFTISRDNAKNTVYLQMNSLKPEDTAVYYCARSRSYWGIVYGRYDYWGQGTQVTVSS” belongs “high polyreactivity”; to “QVQLVESGGGLVQAGGSLRLSCAASGRTFGGYAMGWYRQAPGKERELVAAIRWSGGSTYYADSVKGRFTISRDNAKNTVYLQMNSLKPEDTAVYNCAARSHTSADGGRYYYWGQGTQVTVSS”, “high polyreactivity”; to “QVQLVESGGGLVQAGGSLRLSCAASGRTFSTYAMGGYRQAPGKERELVAVIRRDGSTSYADSVKGRFTISRDNAKNTVYLQMNSLKPEDTAVYYCAVTRRGEYYWGQGTQVTVSS”, “high polyreactivity”. Turning to “QVQLVESGGGLVQAGGSLRLSCADSGITFYIYAMGWYRQAPGKERELVATISWSDGRTYYADSVKGRFTISRDNAKNTVYLQMNRLKPEDTAVYYCAADWWYYQFDYEYWGQGTQVTVSS”, the “polyreactivity (PSR sort gate)” value was “low polyreactivity”. As for “QVQLVESGGGLVQAGGSLRLSCAASGSTVGAYAMGWYRQAPGKERELVAAISYSGGSTYYADSVKGRFTISRDNAKNSVYLQMNSLKPEDSAVYYCAAGTKYTSAVHFFYWGQGTQVTVSS”, the “polyreactivity (PSR sort gate)” value is given as “high polyreactivity”. “QDQLVESGGGLVQAGGSLRLSCAASGRTFFGYAMGWYRQAPGKERELVAAITTSGGSTYYADSVKGRFTISRDNAKNTVYLQMNSLKPEDTAVYYCAARAYYGYYYWGQGTQVTVSS”: the “polyreactivity (PSR sort gate)” value is “low polyreactivity”.

For the sequence “QVQLVESGGGLVQAGGSLRLSCAASGLTFDWNTMGWYRQAPGKERELVATITYTGGSTYYADSVKGRFTISRDNAKNTVYLQMNSLKPEDTAVYFCAARRTRYRSYSRVRYTYDYWGQGTQVTVSS”, the “polyreactivity (PSR sort gate)” value is listed as “high polyreactivity”. As to “QVQLVESGGGLVQAGGSLRLSCAASGSTFPGNAMGWYRQAPGKERELVAAIDTSGGSTYYADSVKGRFTISRDNAKNTVYLQMNSLKAEDTAVYYCDADYLIEMDYWGQGTQVTVSS”, the “polyreactivity (PSR sort gate)” value was “low polyreactivity”.

In the case of “QVQLVESGGGLVQAGGSLRLSCAASGRIFRGNAMGWYRQAPGKERELVAAINYSGGSTYYADSVKGRFTISRDNAKNTVYLQMNSLKPEDTAVYYCAAEPGQYGWYYGYGYWGQGTQVTVSS”, the “polyreactivity (PSR sort gate)” value is recorded as “high polyreactivity”. With “QFKLVESGGGLVQAGGSLRLSCAASGSIVERKTMGWYRQAPGKEMEFVAGITQSGGRTYYADSVKGRFTISRDNAKNTVYLQMNSLKPEDTAVYYCATKTPRAWSYGYWGQGTQVTVSS”, the “polyreactivity (PSR sort gate)” value is recorded as “high polyreactivity”.

With “QVHLVESGGGLVQAGGSLRLRCAASGIIFRRYAMGWYRQAPGKESEFVAAIRYTGGGTYYADSVKGRFTISRDNAKNTVYLQMNSLQPEDTAVYYCAASSRVSKSHLYGYWGQGTQVTVSS”, the “polyreactivity (PSR sort gate)” value is “high polyreactivity”. “QVQQQESGGGLVQAGVSLRLSWAASGTIFQLTVMGRYRQAPGKEREVVASIDYGGNTNYADSVKGRFTISRDNAKNTVYRQMNSLKPEDTAVYYCAASSDSSTTHPYWGQGTHVTVSS”: the “polyreactivity (PSR sort gate)” value is on record as “low polyreactivity”. With “QVQLVESGGGLVHAGGSLRLSCAASGITFSDNTMGWYRQAPGKERELVAAISWRGGRTYYADSVKGRFTISRDYAKNTVSLQMNSLKPEDTAVYYCNAVTSSKARSSSYDYWGQGTQVTVSS”, the “polyreactivity (PSR sort gate)” value is reported as “high polyreactivity”. Consider “QVQLVESGGGLVQAGGSLRLSCAASGYTFSSYTMGWYRQAPRKERELVAAITYSGGSTYYADSVKGRFTISRDNAKNTVYLQMNSLKPEDTAVYYCNARGRYAYAYWGQGTQVTVSS”, for which the “polyreactivity (PSR sort gate)” value is “low polyreactivity”. To “QVQLVESGGGLVQAGGSLRLSCAASGLISRRNAMGWYRQAPGKERELVAAISTGSSTNYADSVKGRFTISRDNAKNTVYLQMNSLKPEDTAVYYCAATQYWWSTLGIRDDYWGQGSQVTVSS” belongs “low polyreactivity”. Take “QVQLVESGGGLVQAGGSLRLSCAASGITFIYYAMGWYRQAPGKERELVAAISKSGGRTYYADSVKGRFTISRDNAKNTVYLQMNSLKPEDTAVYYCNKLVGDDTALYDYWGQGTQVTVSS”: the “polyreactivity (PSR sort gate)” value is listed as “high polyreactivity”. Regarding “QVQLVESGGGLVQAGGSLRLSCAASGSIFHQYVMGWYRQAPGKERELVAAISIRGTRTYYADSVKGRFTISRDNAKNTVYLQMNSLKPEDTAVYYCAVSGGRLQGDYWGQGTQVTVSS”, the “polyreactivity (PSR sort gate)” value is on record as “high polyreactivity”.

For “QVKLVESVGALVQAGGSHRLSCAASGNTFPWYVLGWYRHATGKERELLAAITSSGSTTYYADSVKGRFTISRDNAKNTVYLQMNSLKPDDNAVYYCAARNYGPYDYWGPGTQVTVSS”, the “polyreactivity (PSR sort gate)” value is “low polyreactivity”. As for “QVQLVESGGGLVQAGGSLRLSSAASGSTFGPYPMGWYRPAPGKERELVATISSGGSTYYADSVKGRFTISRDNAKNTVYLQMNSLKPEDTAVYYCAARYWSIYDYWGQGTQVTVSS”, the “polyreactivity (PSR sort gate)” value is reported as “low polyreactivity”. To “QVQLVESGGGLVQAGGSLRLSCAPSGITFFWKAKGWYRQAPGKERELVAAISSGAGTTYADSVKGRFTISRDNAKNTVYLQMNSLKPEDTAVYFCAARRYRYAYGPYNYWGQGSQVTVSS” belongs “low polyreactivity”; to “QVQLVESGGGLVQAGGSLRLSCAASGSTFAVYAMGWYRQAPGKERELVASITDGGASTYYADSVKGRFTISRDNAKNTVYLQMNSLKPEDTAVYYCAADTYPTTSEVDYWGQGTQVTVSS”, “low polyreactivity”. With “QVQLVESGGGLVQAGGSLRLSCAASGRIFGNYAMGWYRQAPGKERELVASISRRGGSTYYADSVKGRFTISRDNAKNTVYLQMIRLKPEDTAVYYCATLRGRLRFGYDYWGQGTQVTVSS”, the “polyreactivity (PSR sort gate)” value is reported as “high polyreactivity”. “QVQLVESGGGLVQAGGSLRLSCAASVRTFNLHAMGCYTQAPGKERELFAAITRSGDSTYYADSVKGSFTISRDKAKKTVYLQMKSLKPEDTAVYYCAKDNVTTPVVKVTFIPLDYWGQGTQVTVSS”: the “polyreactivity (PSR sort gate)” value is “low polyreactivity”. To “QVQLVESGGGLVQAGGSLRLSCAASGSIFRYYAMGWYRQAPGKETEFGADISASGGSTYYADSVKGRFTISRDNAQNTVYLQMNSLKPEDNAVYYWAARYSYRRPGGYQLGSWGQGTQVTVSS” belongs “high polyreactivity”; to “QVQLVESGGGLVQAGGSLRLSCAASGITYYRYTMGWYRQAPGKDRELVASINWSGTRTYYADSVKGRFTISRDNAKNTVYLLMNSLKPEDTAVYYCAAKGAQGTSRRWFDYWGQGTQVTVSS”, “high polyreactivity”.

Values taken from the nanobody polyreactivity screen of Harvey et al. (2022).
